Several values for one entry are separate records, joined by “and”; a condition that tells them apart may be missing. Identical values can stand only once.
B1: S2LMH2EEE Y366A-W368A (domain or fragment)
chain: not shown

Legend:
[1] = target: B1; assay: ITC
[2] = target: S2LMH2EEE/S4LMH2 heterotrimer (human, UniProt Q15796 186-467; Q13485 273-552, SSMS to EEME); assay: ITC
[3] = target: T1, PPM1A (human, UniProt P35813 1-382); assay: NMR titration
T1 sequence (looked up): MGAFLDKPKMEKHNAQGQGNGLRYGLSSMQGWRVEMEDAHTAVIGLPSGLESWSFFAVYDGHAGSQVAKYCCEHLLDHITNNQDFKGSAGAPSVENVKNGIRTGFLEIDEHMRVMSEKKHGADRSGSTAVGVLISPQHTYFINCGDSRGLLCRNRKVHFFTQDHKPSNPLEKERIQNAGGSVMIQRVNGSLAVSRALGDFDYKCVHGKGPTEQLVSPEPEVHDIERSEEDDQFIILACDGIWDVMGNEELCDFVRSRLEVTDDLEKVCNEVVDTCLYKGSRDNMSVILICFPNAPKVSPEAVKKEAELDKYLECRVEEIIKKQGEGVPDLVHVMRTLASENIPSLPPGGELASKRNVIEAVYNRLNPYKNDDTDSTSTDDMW

[4] = target: the molecule itself; assay: SEC

| Binder | Kd [1] | dH [1] | Kd [2] | dH [2] | binding result [3] | binding result [4] |
| --- | --- | --- | --- | --- | --- | --- |
| MAN1 fragment from amino acids 755 to 911 (MAN1Luhm) (domain or fragment, human, UniProt Q9Y2U8 755-911, looked up) DKILVIPSKVWQGQAFHLDRRNSPPNSLTPCLKIRNMFDPVMEIGDQWHLAIQEAILEKCSDNDGIVHIAVDKNSREGCVYVKCLSPEYAGKAFKALHGSWFDGKLVTVKYLRLDRYHHRFPQALTSNTPLKPSNKHMNSMSHLRLRTGLTNSQGSS | 37.9 µM and 33.9 µM | -1.6 kcal/mol and -1.4 kcal/mol | 1250 nM and 1300 nM | -8.4 kcal/mol | binds | – |
| B1 | – | – | – | – | – | binds |

From article PMC3843637 (Science signaling, 2013)
